Reference: US20230079150A1, “METHODS FOR PREVENTION OR TREATMENT OF VIRUS-INDUCED ORGAN INJURY OR FAILURE WITH IL-22 DIMER” (priority 2020, published 2023)

Test system: STAT3
Settings: F-652 alone compared to control HUVECs
Experimental: To investigate the effects of F-652 on EGX, cultured HUVECs were exposed to either untreated media, 1 μg/mL of LPS, 1 μg/mL of LPS and 0.375 μg/mL of F-652, or 0.375 μg/mL of F-652 alone, for a total of 24 hours.
HUVECs were lysed in lysis buffer (50 mM Tris-HCl pH 7.5, 150 mM NaCl, 0.5 M EDTA, 1% Triton X-100, and Halt™ protease inhibitor cocktail). Proteins were quantified using Bio-Rad protein quantification assay (Bio-Rad Laboratories), and 20-50 μg of protein was separated by SDS-polyacrylamide gel electrophoresis (SDS-PAGE) on a 4-12% gradient acrylamide gel run at 100 V. Proteins were then transferred to 0.45 m PVDF membrane at 30 V for 2 hours. Membranes were blocked in Tris Buffered Saline (TBS: 137 mM NaCl, 20 mM Tris Base), 0.1% Tween 20, and 5% bovine serum albumin (blocking solution) for 1 hour, followed by overnight incubation with primary antibody diluted in TBS, 0.1% Tween 20, and 3% BSA, and 1 hour incubation with horseradish peroxidase-conjugated secondary antibody diluted at 1:5,000. […] Immunoreactive protein was detected using ECL (GE Healthcare) imaged on a Bio-Rad ChemiDoc™ MP Imaging System.

B1: F-652: recombinant IL-22 dimer consisting of two monomeric subunits each comprising a sequence shown in SEQ ID NO: 24 (protein)
chain 1: APISSHCRLDKSNFQQPYITNRTFMLAKEASLADNNTDVRLIGEKLFHGVSMSERCYLMKQVLNFTLEEVLFPQSDRFQPYMQEVVPFLARLSNRLSTCHIEGDDLHIQRNVQKLKDTVKKLGESGEIKAIGELDLLFMSLRNACIGSGGGSGGGGSGGGGSVECPPCPAPPVAGPSVFLFPPKPKDTLMISRTPEVTCVVVDVSHEDPEVQFNWYVDGVEVHNAKTKPREEQFNSTFRVVSVLTVVHQDWLNGKEYKCKVSNKGLPASIEKTISKTKGQPREPQVYTLPPSREEMTKNQVSLTCLVKGFYPSDIAVEWESNGQPENNYKTTPPMLDSDGSFFLYSKLTVDKSRWQQGNVFSCSVMHEALHNHYTQKSLSLSPGK
chain 2: B1 chain 1
modifications: homodimer
- ratio of phosphorylated STAT3 to total STAT3: significantly higher
